Measurements published in paper PMC12254369, “Small molecule disruption of RARα/NCoR1 interaction inhibits chaperone-mediated autophagy in cancer” (EMBO Molecular Medicine, 2025).
Values belong to the molecule of their own block, whether it stands above or below them. Ends that are not written are not given here. * marks the point of attachment. FITC = O=C1OC2(c3ccc(O)cc3Oc3cc(O)ccc32)c2ccc(NC(=S)*)cc21; Ahx = NCCCCCC(=O)O

How the values were obtained:
[1] = biological target: T1, His-tagged RARα LBD with FITC-SRC (Homo sapiens, UniProt P10276); assay: TR-FRET coactivator peptide recruitment; format: binding; conditions: 3 nM His-RARα LBD, 50 nM FITC-SRC, 5 mM DTT, pH 7.4, 1 h; agonist
T1 construct: gene RARA; LBD residues 176-462 with His tag
T1 sequence (P10276 176-462): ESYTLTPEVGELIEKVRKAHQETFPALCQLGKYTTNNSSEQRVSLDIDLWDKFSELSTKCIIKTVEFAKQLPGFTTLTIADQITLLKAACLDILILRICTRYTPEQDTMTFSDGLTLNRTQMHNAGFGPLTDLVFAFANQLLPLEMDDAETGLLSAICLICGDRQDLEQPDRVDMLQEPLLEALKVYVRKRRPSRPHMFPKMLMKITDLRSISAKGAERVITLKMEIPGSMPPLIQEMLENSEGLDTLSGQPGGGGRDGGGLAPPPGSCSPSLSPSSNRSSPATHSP

[2] = biological target: T2, Recombinant RARα LBD (ligand binding domain of human retinoic acid receptor alpha, residues 176-462, … (human, UniProt P10276 176-462)); assay: AlphaScreen or HTRF; TR-FRET: 3 nM His-tagged RARα LBD, 0.5 nM anti-6HIS Tb cryptate (donor), 50 nM FITC-SRC (acceptor); 1x PBS, 0.02% Pluronic F-127, 5 mM DTT, pH 7.4; 1 h; increasing concentrations of CIM7, ATRA or AM580; conditions: both partners purified
T2 construct: The His tag is detected by the anti-6HIS Tb cryptate antibody in the TR-FRET assay; also called His-tagged RARα LBD; source: E. coli BL21(DE3), purified (Ni-NTA, Superdex 200 gel filtration); not shown: His tag, N-terminal, kept
T2 sequence (looked up): T1 sequence (P10276 176-462)

[3] = biological target: T2, Recombinant RARα LBD (ligand binding …); assay: fluorescence polarisation; RARα LBD serially diluted from 50 µM, 5 nM FITC-NCoR1 peptide; 20 mM HEPES, 150 mM NaCl, 5 mM DTT, pH 7.5; read at 1 h; with DMSO, 25 µM CIM7, 10 µM ATRA or AM580; conditions: both partners purified

Molecule: CC1=C(/C=C/C(C)=C/C=C/C(C)=C/C(=O)O)C(C)(C)CCC1 [ATRA, All-trans retinoic acid]
TR-FRET coactivator peptide recruitment [1]: rather enhance binding of the coactivator, SRC

binding result [2]: binds
B1: FITC-SRC peptide (FITC-Ahx-RHKILHRLLQEGS) (peptide)
peptide: {FITC-Ahx}-RHKILHRLLQEGS
notes: source: synthetic peptide (GenScript, purity >95%)

binding result [3]: binds
B2: FITC-NCoR1 peptide (FITC-Ahx-RLITLADHICQIITQDFAR) (peptide)
peptide: {FITC-Ahx}-RLITLADHICQIITQDFAR
notes: peptide of nuclear receptor corepressor 1 (NCoR1); also called NCoR1 fluorescent peptide; source: synthetic peptide (GenScript, purity >95%)
